Test results published in the MegaScale stability set (Tsuboyama et al. 2023).

B1: 5KPH (parent)
chain: EEKRQVKQVAKEKLLEQSPNSKVQVRRVQKQGNTIRVELELRTNGKKENYTVEVERQGNTWTVKRITRT

Variants of: B1
Assay: folding stability dG (cDNA display proteolysis); higher = more stable
Settings: PBS, room temperature

Folding stability dG [kcal/mol] of substitutions, site by site:
Q31: Y 4.34; M 4.47; I 4.42; C 3.92; K 3.83; R 4.05; N 3.84; W 4.41; V 4.25; G 3.13; F 4.21; L 4.27; A 3.75; E 4.05; H 4.3; S 4.03; T 4.12; P 1.87; D 3.89
T43: H 3.98; G 3.6; S 3.85; D 3.65; N 3.87; E 3.78; P 2.17; V 3.65; Q 3.91; A 3.72; C 3.24; K 3.69; F 3.87; R 3.47; M 3.68; L 3.94; I 3.72; W 3.7; Y 3.88
G32: E 3.1; V 2.74; S 2.97; T 2.6; W 3.21; H 3.14; K 3.11; P 2.45; L 3.09; D 3.3; C 3.07; I 2.67; Y 3.13; Q 3.04; M 2.99; A 3.18; F 3.33; N 3.26; R 3.03
R42: N 4.19; A 3.59; M 3.85; G 3.04; V 4.14; P 1.28; T 4.4; E 4.12; Y 4.45; F 4.66; H 3.91; I 4.28; Q 3.81; L 4.08; C 3.54; W 4.57; S 3.91; K 3.57; D 4.2
V28: Y 4.35
L41: G 2.38; E 1.66; Y 2.35; D 2.04; A 3.63; H 2.19; V 4.07; C 3.37; W 2.39; K 2.73; N 1.7; S 3.24; I 3.59; M 3.89; Q 2.91; T 3.36; R 2.65; F 2.69; P 0.528
K30: Y 4.7; E 3.78; F 4.62; W 4.64; V 4.33; C 3.69; M 4.28; P 3.79; H 4.05; R 4; G 4.08; N 3.76; T 4.14; D 3.8; S 4.32; I 4.35; Q 4.25; L 4.03; A 4.22
T34: G 3.44; R 3.63; M 3.85; S 3.59; A 3.62; Y 3.92; C 3.48; N 3.44; L 3.96; W 3.65; K 3.4; D 2.93; E 2.99; Q 3.38; V 4.08; I 3.97; P 2.41; H 3.57; F 3.81
G45: E 3.49; T 3.49; Y 3.55; S 3.75; M 3.52; Q 3.5; N 3.55; D 3.57; I 2.91; C 3.29; W 3.66; V 2.85; A 3.5; F 3.97; P 1.96; K 3.4; H 3.44; R 3.42; L 3.42
N44: L 3.83; E 4.02; C 3.5; F 3.7; W 3.67; I 3.46; T 3.27; M 3.84; S 3.76; V 3.47; K 3.77; P 3.4; D 3.79; G 3.79; Q 3.67; H 3.79; A 3.81; Y 3.78; R 3.66
K46: R 4.01; I 4.03; V 3.98; W 3.7; D 3.43; F 3.81; H 3.9; S 3.73; A 3.65; E 3.44; Y 3.93; L 3.79; T 3.85; N 3.81; C 3.6; P 2.63; Q 3.84; G 3.49; M 3.89
N33: R 3.74; I 3.38; K 3.75; C 3.22; Y 3.5; A 3.79; W 3.36; L 3.58; Q 3.71; E 3.68; V 3.4; P 3.55; T 3.82; D 3.9; G 3.58; H 3.53; F 3.67; M 3.74; S 3.88
R36: M 4.23; Y 4.54; A 3.64; H 4.04; P 0.344; C 3.57; G 2.54; K 4.23; L 4.33; N 3.7; T 3.9; I 4.34; S 3.85; E 3.54; V 4.13; Q 3.75; F 4.35; D 2.45; W 4.21
V37: F 2.39; C 2.65; N -0.204; S 0.645; R -0.176; Y 2.32; T 1.28; K 0.177; H -0.646; M 2.89; A 2.15; W 1.87; Q -0.216; L 3.33; G 1.21; I 3.5
Q29: R 4.17; E 3.96; L 4.26; M 4.3; T 4.33; W 4.58; C 3.9; S 4.22; H 4.18; F 4.45; I 4.24; G 3.42; N 3.83; A 3.84; D 3.75; V 4.08; P 1.02; Y 4.51; K 3.75
E38: F 4.66; G 3.2; Q 3.76; V 3.85; R 3.69; H 4.14; T 3.99; P 1.08; L 4.18; Y 4.76; A 3.62; D 3.91; M 4.43; K 3.7; W 4.29; C 3.66; S 3.89; N 3.51; I 4.1
I35: G 2.57; F 4.81; E 1.93; S 3.37; M 4.13; N 2.81; D 1.2; Q 2.79; T 3.82; L 3.71; K 1.48; P 0.813; H 4.15; R 2.6; V 3.81; C 3.39; A 3.73
E40: S 3.73; F 3.81; A 3.52; V 4.23; N 3.12; I 4.1; L 3.96; K 3.32; Y 3.89; H 3.59; G 2.84; C 3.51; D 3.04; R 3.46; P 0.357; T 4.12; W 3.95; Q 3.91; M 3.87
L39: I 3.67; M 3.66; T 2.59; Y 2.59; A 3.65; S 1.55; R -0.147; K -0.798; C 3.88; N -0.472; V 3.83; F 3.48; G 2.35; W 2.03; H 0.352
